Data from the DeepSol protein solubility set.

Assay: soluble on expression in E. coli; label from the status in PepcDB or PDB records

Sequence | soluble on expression in E. coli
MSPVDFKDKVVIITGAGGGLGKYYSLEFAKLGAKVVVNDLGGALNGQGGNSKAADVVVDEIVKNGGVAVADYNNVLDGDKIVETAVKNFGTVHVIINNAGILRDASMKKMTEKDYKLVIDVHLNGAFAVTKAAWPYFQKQKYGRIVNTSSPAGLYGNFGQANYASAKSALLGFAETLAKEGAKYNIKANAIAPLARSRMTESIMPPPMLEKLGPEKVAPLVLYLSSAENELTGQFFEVAAGFYAQIRWERSGGVLFKPDQSFTAEVVAKRFSEILDYDDSRKPEYLKNQYPFMLNDYATLTNEARKLPANDASGAPTVSLKDKVVLITGAGAGLGKEYAKWFAKYGAKVVVNDFKDATKTVDEIKAAGGEAWPDQHDVAKDSEAIIKNVIDKYGTIDILVNNAGILRDRSFAKMSKQEWDSVQQVHLIGTFNLSRLAWPYFVEKQFGRIINITSTSGIYGNFGQANYSSSKAGILGLSKTMAIEGAKNNIKVNIVAPHAETAMTLSIMREQDKNLYHADQVAPLLVYLGTDDVPVTGETFEIGGGWIGNTRWQRAKGAVSHDEHTTVEFIKEHLNEITDFTTDTENPKSTTESSMAILSAVGGD | soluble
MSQDLQKEVASRKTFAIISHPDAGKTTITEQLLLFGGVIRSAGTVKGKKSGKFATSDWMEIEKQRGISVTSSVMQFDYNGSRINILDTPGHSDFSEDTYRTLMAVDSAVMVIDAAKGIEAQTLKLFKVCRMRGIPIFTFINKMDRQGKMPLELLAELEEVLGIESYPMNWPIGMGKELAGLYDRYHRVIEQYRSEEDERFLPLGEDGDLKEAHAIQKSLYYDQALEEIMLLDEAGNDFSRERIIAGEQTPVFFGSALTNFGVETFLRTFVDFAPAPSSHESNEGVIEADNPKFSGFIFKIQANMNPAHRDRIAFIRICSGEFERGMNVTLTRTGKSLKLANSTQFMADDRETVNRAVAGDIIGLYDTGNYQIGDTITNGSKKLEFEKLPQFTPELFMRVYAKNVMKQKHFHKGVEQLVQEGAIQLFKTWRTEEYIIGAVGQLQFEVFEHRMRGEYNSEIRMEPIGKKIARWVKEEDADEKLSTARSMLVKDRFDQPLFLFENEFAINWFNDKNPDIELTSLL | not soluble
MSQEHESSFQDPSRDELIQQVKELQIINANQRPEKILQEAFEKINLLVITIDQDGLIVYANEAFLEVIGWEKQRLLGENWKEFLEPGKDKNKEEHIYTLIKKQGFIDQLKRKFLSKEGDYRTIKFNVVIHHPIGNDVHLTTLIGEDIT | not soluble
MSQFAVIIFGDQAKANEASRVLTELQADNSLVLFSQAVIAKDLAGTVSLMAPASGGAVGSAVSGLASRLIGVPVGGHGDLSDAGVLDSFCQEAADALKPGATAIVAEISEDRLGPLNTQMHALGGQVLRSCNSDSEGDEIAKQTARQIANIERLNAEYVRAPQDADKPGETPVDAVTLAPDERASNQSIVKANAEARSAKLSQACGLTKDALG | not soluble
MSQIAGYFSSDSGVYPNPVKDVLNIKHEGDFGVRIFDFSGRLVLSMENTRMIGVKVLTAGAYVIKLMTQGSTPAERFIKL | not soluble
MSQLFVRTGIHFSSSQQALEHIGAEMLARGVVHDSYPAALLEREATFPTGIALEKHAVAIPHCEAIHAKSPAIYLIRPDMPVSFQRADDDGEIDVSLIIALIVENPAAQLKLLRRLFSELQNPHTLEALLAASDDRLPVRFQQLILEPELSAVAS | not soluble
MSQQSLISPSLQDILCKIQFNDTQFETTKKITRKRSNNFNPDRKKRNRITFDANQIDEMEKVFAENQYPDTMSREKLANKIQLHEERVQIWFQNRRAKYRREQKQTGHPYEPPSITKNPTGEKEKTQDCTTLTSASSPGPSNLSNDTLVSIEMAPKIGTKSVNLFPDQALSNTLNMIINANKNASENNYESEDQFNAESAKLLMLTLSNLFSLQNETTCE | not soluble
MSQQYVYSMLRVSKVVPPQKTIIKDISLSFFPGAKIGLLGLNGAGKSTVLRIMAGVDKEFEGEAVPMGGIKIGYLPQEPELDPEKTVREEVESGLGEVAAAQKRLEEVYAEYANPDADFDALAEEQGRLEAIIAAGSSTGGGAEHELEIAADALRLPEW | not soluble
MSQSISLKGSTRTVTEFFEYSINSILYQRGVYPAEDFVTVKKYDLTLLKTHDDELKDYIRKILLQVHRWLLGGKCNQLVLCIVDKDEGEVVERWSFNVQHISGNSNGQDDVVDLNTTQSQIRALIRQITSSVTFLPELTKEGGYTFTVLAYTDADAKVPLEWADSNSKEIPDGEVVQFKTFSTNDHKVGAQVSYKY | soluble
